Data: article PMC12421817, “c-di-GMP regulates bacterial NAD biosynthesis via targeting the transcriptional repressor NadR” (mBio, 2025)
Numbering of substitutions follows the chain as printed.

Tests used:
[1] = molecular target: T1, NadR H80A H80A (Salmonella enterica serovar Typhimurium) (UniProt P24518); test: EMSA; details: EMSA: 50 ng DNA, 20 mM Tris pH 7.5, 100 mM NaCl, 10% glycerol, 4 mM MgCl2, 1% NP-40, 1 mM DTT, 25 uL, 20 min room temperature; 6% native PAGE, 0.5x TBE, SYBR …
T1 sequence: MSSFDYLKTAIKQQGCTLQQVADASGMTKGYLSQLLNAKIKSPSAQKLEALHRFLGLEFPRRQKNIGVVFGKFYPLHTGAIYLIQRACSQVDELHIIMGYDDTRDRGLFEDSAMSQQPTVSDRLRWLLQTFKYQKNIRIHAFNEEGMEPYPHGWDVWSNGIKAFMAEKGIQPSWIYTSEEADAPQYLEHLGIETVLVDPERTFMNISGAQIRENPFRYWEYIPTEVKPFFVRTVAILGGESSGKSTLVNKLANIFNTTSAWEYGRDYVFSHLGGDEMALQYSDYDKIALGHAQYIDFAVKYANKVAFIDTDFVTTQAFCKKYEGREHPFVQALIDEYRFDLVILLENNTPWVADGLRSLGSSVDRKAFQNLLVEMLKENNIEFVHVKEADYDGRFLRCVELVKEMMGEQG

[2] = molecular target: T2, NadR R212A R212A (Salmonella enterica serovar Typhimurium) (UniProt P24518); test: EMSA; details: EMSA: 50 ng DNA, 20 mM Tris pH 7.5, 100 mM NaCl, 10% glycerol, 4 mM MgCl2, 1% NP-40, 1 mM DTT, 25 uL, 20 min room temperature; 6% native PAGE, 0.5x TBE, SYBR …
T2 sequence: T1 sequence with A80H, R212A

Sequence | binding [1] | binding [2]
GCTCATCGTGGCTTCTCGTTTTACTGACTTAACGAAACAACCGAATGAAAGCGTAATAAACGCCACAATCGGTTAATTTGTTTTATATGCTAAACAAGATAGCTGATTCAATAAGGAAAGTCACAATAATTACGTAGCCCCGTATCTGATGGCGGCGTAACGTCTTATCTGGCCTACGTGAGCGGTGCCGTCTGTAGGCCTGAT (double strand) [nadA-pnuC promoter] | binds | binds
GGTTCTTGTTTAATTTACTAAACATGGTTGCGGCAGATTAGCACTATATGGCGCTAAAAAGCACGTTATGATTTCGCTGGTGTTGTGCTTATTAAACATAAAATAAAAATACGGCGAGAGATAAACGGCAAAAAATATTTTATAGGGCAGGGTGTTAGCGTCGGATTTTGTAGTGAAATAAAGATGCTGTTAGGTTACTC (double strand) [nadB promoter] | binds | binds
